Measured values from IntAct's records for PubMed 16330715.

B1: Neutrophil cytosol factor 1 (Homo sapiens), P14598 (parent)
chain: MGDTFIRHIALLGFEKRFVPSQHYVYMFLVKWQDLSEKVVYRRFTEIYEFHKTLKEMFPIEAGAINPENRIIPHLPAPKWFDGQRAAENRQGTLTEYCSTLMSLPTKISRCPHLLDFFKVRPDDLKLPTDNQTKKPETYLMPKDGKSTATDITGPIILQTYRAIANYEKTSGSEMALSTGDVVEVVEKSESGWWFCQMKAKRGWIPASFLEPLDSPDETEDPEPNYAGEPYVAIKAYTAVEGDEVSLLEGEAVEVIHKLLDGWWVIRKDDVTGYFPSMYLQKSGQDVSQAQRQIKRGAPPRRSSIRNAHSIHQRSRKRLSQDAYRRNSVRFLQQRRRQARPGPQSPGSPLEEERQTQRSKPQPAVPPRPSADLILNRCSESTKRKLASAV

Variants of: B1
Conditions: with fak2_human PTK2B

| Variant | effect of a mutation on the interaction |
| --- | --- |
| MGDTFIRHIALLGFEKRFVPSQHYVYMFLVKWQDLSEKVVYRRFTEIYEFHKTLKEMFPIEAGAINPENRIIPHLPAPKWFDGQRAAENRQGTLTEYCSTLMSLPTKISRCPHLLDFFKVRPDDLKLPTDNQTKKPETYLMPKDGKSTATDITGPIILQTYRAIANYEKTSGSEMALSTGDVVEVVEKSESGWWFCQMKAKRGWIPASFLEPLDSPDETEDPEPNYAGEPYVAIKAYTAVEGDEVSLLEGEAVEVIHKLLDGWWVIRKDDVTGYFPSMYLQKSGQDVSQAQRQIKRGAPPRRDDIRNAHSIHQRSRKRLSQDAYRRNDVRFLQQRRRQARPGPQSPGSPLEEERQTQRSKPQPAVPPRPSADLILNRCSESTKRKLASAV [S303D;S304D;S328D] | increasing interaction strength |
| MGDTFIRHIALLGFEKRFVPSQHYVYMFLVKWQDLSEKVVYRRFTEIYEFHKTLKEMFPIEAGAINPENRIIPHLPAPKWFDGQRAAENRQGTLTEYCSTLMSLPTKISRCPHLLDFFKVRPDDLKLPTDNQTKKPETYLMPKDGKSTATDITGPIILQTYRAIANYEKTSGSEMALSTGDVVEVVEKSESGRWFCQMKAKRGWIPASFLEPLDSPDETEDPEPNYAGEPYVAIKAYTAVEGDEVSLLEGEAVEVIHKLLDGWWVIRKDDVTGYFPSMYLQKSGQDVSQAQRQIKRGAPPRRSSIRNAHSIHQRSRKRLSQDAYRRNSVRFLQQRRRQARPGPQSPGSPLEEERQTQRSKPQPAVPPRPSADLILNRCSESTKRKLASAV [W193R] | disrupting interaction strength |
